# System: c-Src
# Assay: phosphorylation enrichment, bacterial display (enrichment ratio); higher = better substrate or ligand; peptides without Tyr show the background
# 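Throughout, for SH2 binding enrichment of the phosphorylated peptide, bacterial display: peptide library displayed on the E. coli surface as eCPX fusions, selected cells deep-sequenced, score is each peptide's frequency after selection divided by its frequency in the input.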
# 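Throughout, for phosphorylation enrichment, bacterial display: 11-residue human phosphosite peptides and single-mutation variants displayed on the E. coli surface, counted by deep sequencing, each peptide's frequency after selection divided by its frequency in the unselected input library; frequency after pTyr selection over input frequency; kinase dosed for 20-30% of maximal phosphorylation in three min.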
row,Sequence,phosphorylation enrichment
1,ARKCKYFKKHE [NFIX_Y40_R38C],0.545
2,PDGREYIFVDP [PDGFRA_Y572_H570R_YF],0.431
3,LHRHAYPEQQQ [DPPA2_Y127_R131Q],0.559
4,QRMGTYGVRAA [ICAM2_Y260],1.58
5,RGYRVCYTPDS [PTPRF_Y450_Y450C],0.985
6,KIDAKYKKKIK [WDR19_Y1230_E1235K],0.484
7,SRWKLYPRMLR [HAO1_Y50],0.442
8,TNEFEYDELIV [TGM1_Y136_D132N_YF],0.669
9,KLQKKYGPISS [CYP17A1_Y60_Y64S],0.364
10,IQTDGDRAPEA [UHMK1_Y197_Y197D],0.536
11,LECEWYKNGVK [TTN_Y2112_P2107L],0.576
12,CRAVKYLQMVD [AVPR2_Y117_G122D],0.318
13,REGDKYVSHGA [ASS1_Y113_A111D],0.643
14,AVRVFYRKCPH [EPHB2_Y194_R199H],0.424
15,SILAVYSKDNF [PANK2_Y400_YF],1.94
16,SQINLYQDVML [ZNF806_Y33_A28S],0.934
17,GIADDYDKKKP [EIF1_Y54_L59P],0.436

row,Sequence,phosphorylation enrichment
1,VERRVYAEDPY [PCCA_Y401_C398R],0.681
2,MSSLPYMKVIF [SLC4A11_Y853_M856V],0.516
3,EKLQKYFRKNP [EHHADH_Y682_Q685K_YF],0.613
4,PTTKSYFPHFD [HBA1_Y43_T42S],0.498
5,HNLDFYKQTTN [FGFR3_Y648_K650Q_YF],0.409
6,LGLDEYLDKLK [FMNL2_Y352],0.375
7,IDNKMYDPKMN [ENPP1_Y280],0.344
8,LRGVIYVILRK [PMP22_Y153_S149R],0.713
9,QEGPEYWDGET [HLA-A_Y83_Q86G],0.554
10,YRQNVYIPGSN [PCDHGA1_Y895],0.454
11,DSLASYLDKVR [KRT10_Y160_R156S],0.46
12,NTVDYYDLYGG [PTPN11_Y63_G60V],4.25
13,KKFFSYAWPFF [BRDT_Y291_H288Y_YF],0.497
14,RCFVFYFSFLL [PTEN_Y177_R173C_YF],0.591
15,NGTVTYAIVAG [CDH23_Y1672],1.08
16,LRYDSYWSYCN [SLC20A2_Y433_S434W],4.87

# Biological target: Grb2 SH2 (UniProt P62993)
# Assay: SH2 binding enrichment of the phosphorylated peptide, bacterial display (enrichment ratio); higher = better substrate or ligand; peptides without Tyr show the background
# Chain of Grb2 SH2 (P62993 whole entry, looked up): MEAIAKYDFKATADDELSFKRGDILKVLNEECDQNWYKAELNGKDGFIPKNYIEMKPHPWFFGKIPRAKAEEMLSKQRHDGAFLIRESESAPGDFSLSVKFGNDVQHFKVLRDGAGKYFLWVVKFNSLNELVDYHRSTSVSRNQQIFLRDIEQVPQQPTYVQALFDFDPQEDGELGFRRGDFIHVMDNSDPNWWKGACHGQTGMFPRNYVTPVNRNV
row,Sequence,SH2 binding enrichment
1,ARKCKYFKKHE [NFIX_Y40_R38C],1.1
2,PDGREYIFVDP [PDGFRA_Y572_H570R_YF],0.789
3,LHRHAYPEQQQ [DPPA2_Y127_R131Q],1.02
4,QRMGTYGVRAA [ICAM2_Y260],1
5,RGYRVCYTPDS [PTPRF_Y450_Y450C],0.534
6,KIDAKYKKKIK [WDR19_Y1230_E1235K],0.597
7,SRWKLYPRMLR [HAO1_Y50],0.79
8,TNEFEYDELIV [TGM1_Y136_D132N_YF],0.804
9,KLQKKYGPISS [CYP17A1_Y60_Y64S],0.873
10,IQTDGDRAPEA [UHMK1_Y197_Y197D],0.762
11,LECEWYKNGVK [TTN_Y2112_P2107L],0.613
12,CRAVKYLQMVD [AVPR2_Y117_G122D],0.798
13,REGDKYVSHGA [ASS1_Y113_A111D],0.623
14,AVRVFYRKCPH [EPHB2_Y194_R199H],0.646
15,SILAVYSKDNF [PANK2_Y400_YF],0.802
16,SQINLYQDVML [ZNF806_Y33_A28S],0.846
17,GIADDYDKKKP [EIF1_Y54_L59P],0.76

row,Sequence,SH2 binding enrichment
1,VERRVYAEDPY [PCCA_Y401_C398R],0.89
2,MSSLPYMKVIF [SLC4A11_Y853_M856V],1.38
3,EKLQKYFRKNP [EHHADH_Y682_Q685K_YF],0.914
4,PTTKSYFPHFD [HBA1_Y43_T42S],1.08
5,HNLDFYKQTTN [FGFR3_Y648_K650Q_YF],0.874
6,LGLDEYLDKLK [FMNL2_Y352],0.78
7,IDNKMYDPKMN [ENPP1_Y280],1.17
8,LRGVIYVILRK [PMP22_Y153_S149R],0.893
9,QEGPEYWDGET [HLA-A_Y83_Q86G],0.957
10,YRQNVYIPGSN [PCDHGA1_Y895],0.829
11,DSLASYLDKVR [KRT10_Y160_R156S],0.867
12,NTVDYYDLYGG [PTPN11_Y63_G60V],0.985
13,KKFFSYAWPFF [BRDT_Y291_H288Y_YF],1.34
14,RCFVFYFSFLL [PTEN_Y177_R173C_YF],1.97
15,NGTVTYAIVAG [CDH23_Y1672],0.655
16,LRYDSYWSYCN [SLC20A2_Y433_S434W],0.974

# Biological target: SHP2-C SH2
# Assay: as above
row,Sequence,SH2 binding enrichment
1,ARKCKYFKKHE [NFIX_Y40_R38C],0.847
2,PDGREYIFVDP [PDGFRA_Y572_H570R_YF],0.618
3,LHRHAYPEQQQ [DPPA2_Y127_R131Q],0.839
4,QRMGTYGVRAA [ICAM2_Y260],0.881
5,RGYRVCYTPDS [PTPRF_Y450_Y450C],0.687
6,KIDAKYKKKIK [WDR19_Y1230_E1235K],0.906
7,SRWKLYPRMLR [HAO1_Y50],0.585
8,TNEFEYDELIV [TGM1_Y136_D132N_YF],0.679
9,KLQKKYGPISS [CYP17A1_Y60_Y64S],0.594
10,IQTDGDRAPEA [UHMK1_Y197_Y197D],1.03
11,LECEWYKNGVK [TTN_Y2112_P2107L],0.48
12,CRAVKYLQMVD [AVPR2_Y117_G122D],0.755
13,REGDKYVSHGA [ASS1_Y113_A111D],1.01
14,AVRVFYRKCPH [EPHB2_Y194_R199H],0.497
15,SILAVYSKDNF [PANK2_Y400_YF],0.975
16,SQINLYQDVML [ZNF806_Y33_A28S],0.771
17,GIADDYDKKKP [EIF1_Y54_L59P],0.614

row,Sequence,SH2 binding enrichment
1,VERRVYAEDPY [PCCA_Y401_C398R],0.506
2,MSSLPYMKVIF [SLC4A11_Y853_M856V],2.98
3,EKLQKYFRKNP [EHHADH_Y682_Q685K_YF],0.802
4,PTTKSYFPHFD [HBA1_Y43_T42S],0.812
5,HNLDFYKQTTN [FGFR3_Y648_K650Q_YF],0.488
6,LGLDEYLDKLK [FMNL2_Y352],0.662
7,IDNKMYDPKMN [ENPP1_Y280],0.623
8,LRGVIYVILRK [PMP22_Y153_S149R],0.359
9,QEGPEYWDGET [HLA-A_Y83_Q86G],0.662
10,YRQNVYIPGSN [PCDHGA1_Y895],0.661
11,DSLASYLDKVR [KRT10_Y160_R156S],0.772
12,NTVDYYDLYGG [PTPN11_Y63_G60V],0.692
13,KKFFSYAWPFF [BRDT_Y291_H288Y_YF],1.25
14,RCFVFYFSFLL [PTEN_Y177_R173C_YF],1.78
15,NGTVTYAIVAG [CDH23_Y1672],12.8
16,LRYDSYWSYCN [SLC20A2_Y433_S434W],0.803

# Biological target: c-Src SH2
# Assay: as above
row,Sequence,SH2 binding enrichment
1,ARKCKYFKKHE [NFIX_Y40_R38C],0.646
2,PDGREYIFVDP [PDGFRA_Y572_H570R_YF],0.543
3,LHRHAYPEQQQ [DPPA2_Y127_R131Q],0.906
4,QRMGTYGVRAA [ICAM2_Y260],0.724
5,RGYRVCYTPDS [PTPRF_Y450_Y450C],0.41
6,KIDAKYKKKIK [WDR19_Y1230_E1235K],0.657
7,SRWKLYPRMLR [HAO1_Y50],0.392
8,TNEFEYDELIV [TGM1_Y136_D132N_YF],0.47
9,KLQKKYGPISS [CYP17A1_Y60_Y64S],0.554
10,IQTDGDRAPEA [UHMK1_Y197_Y197D],0.427
11,LECEWYKNGVK [TTN_Y2112_P2107L],0.322
12,CRAVKYLQMVD [AVPR2_Y117_G122D],0.532
13,REGDKYVSHGA [ASS1_Y113_A111D],0.407
14,AVRVFYRKCPH [EPHB2_Y194_R199H],0.509
15,SILAVYSKDNF [PANK2_Y400_YF],0.716
16,SQINLYQDVML [ZNF806_Y33_A28S],0.608
17,GIADDYDKKKP [EIF1_Y54_L59P],0.895

row,Sequence,SH2 binding enrichment
1,VERRVYAEDPY [PCCA_Y401_C398R],0.55
2,MSSLPYMKVIF [SLC4A11_Y853_M856V],1
3,EKLQKYFRKNP [EHHADH_Y682_Q685K_YF],0.549
4,PTTKSYFPHFD [HBA1_Y43_T42S],0.593
5,HNLDFYKQTTN [FGFR3_Y648_K650Q_YF],0.395
6,LGLDEYLDKLK [FMNL2_Y352],0.588
7,IDNKMYDPKMN [ENPP1_Y280],0.578
8,LRGVIYVILRK [PMP22_Y153_S149R],0.373
9,QEGPEYWDGET [HLA-A_Y83_Q86G],0.476
10,YRQNVYIPGSN [PCDHGA1_Y895],0.43
11,DSLASYLDKVR [KRT10_Y160_R156S],0.579
12,NTVDYYDLYGG [PTPN11_Y63_G60V],0.801
13,KKFFSYAWPFF [BRDT_Y291_H288Y_YF],0.982
14,RCFVFYFSFLL [PTEN_Y177_R173C_YF],1.27
15,NGTVTYAIVAG [CDH23_Y1672],1.24
16,LRYDSYWSYCN [SLC20A2_Y433_S434W],1.43

# From the supplement of paper PMC10065799, “High-throughput profiling of sequence recognition by tyrosine kinases and SH2 domains using bacterial peptide display” (eLife, 2023)
